Test results from publication PMC9122904, “Insights into the client protein release mechanism of the ATP-independent chaperone Spy” (Nature Communications, 2022).

Tests used:
Assay in all cases: BLI; Octet RED96; client biotinylated and loaded on streptavidin sensors; Spy or Spy variant in solution at 0.25, 0.5, 1, 1.5 and 2 μM; 40 mM HEPES, 150 mM NaCl, pH 7.5; Kd calculated as koff/kon
Details in all cases: both partners purified
[1] = biological target: T1, Spy_(29-124) R43D (UniProt P77754 52-147, R43D)
T1 construct: source: E. coli BL21 (DE3), purified (Ni-NTA, cation exchange, SEC); not shown: His6, N-terminal, cleaved; SUMO, N-terminal, cleaved
T1 sequence (looked up): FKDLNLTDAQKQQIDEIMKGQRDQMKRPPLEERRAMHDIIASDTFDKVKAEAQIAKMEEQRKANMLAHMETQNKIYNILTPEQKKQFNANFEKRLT

[2] = biological target: T2, Spy_(29-124) R50D (UniProt P77754 52-147, R50D)
T2 construct: source: E. coli BL21 (DE3), purified (Ni-NTA, cation exchange, SEC); not shown: His6, N-terminal, cleaved; SUMO, N-terminal, cleaved
T2 sequence (looked up): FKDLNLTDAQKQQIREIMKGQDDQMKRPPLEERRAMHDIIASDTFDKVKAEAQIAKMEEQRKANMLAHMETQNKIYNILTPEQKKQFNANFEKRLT

[3] = biological target: T3, Spy_(29-124) K54D R55D (UniProt P77754 52-147, K54D | R55D)
T3 construct: source: E. coli BL21 (DE3), purified (Ni-NTA, cation exchange, SEC); not shown: His6, N-terminal, cleaved; SUMO, N-terminal, cleaved
T3 sequence (looked up): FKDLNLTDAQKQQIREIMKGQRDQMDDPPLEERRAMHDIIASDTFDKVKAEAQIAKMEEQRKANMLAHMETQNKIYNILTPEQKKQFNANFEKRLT

[4] = biological target: T4, Spy_(29-124) R61D R62D (UniProt P77754 52-147, R61D | R62D)
T4 construct: source: E. coli BL21 (DE3), purified (Ni-NTA, cation exchange, SEC); not shown: His6, N-terminal, cleaved; SUMO, N-terminal, cleaved
T4 sequence (looked up): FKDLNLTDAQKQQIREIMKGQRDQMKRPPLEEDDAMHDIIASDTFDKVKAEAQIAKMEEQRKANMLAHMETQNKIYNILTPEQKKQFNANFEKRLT

[5] = biological target: T5, Spy_(29-124) K75D (UniProt P77754 52-147, K75D)
T5 construct: source: E. coli BL21 (DE3), purified (Ni-NTA, cation exchange, SEC); not shown: His6, N-terminal, cleaved; SUMO, N-terminal, cleaved
T5 sequence (looked up): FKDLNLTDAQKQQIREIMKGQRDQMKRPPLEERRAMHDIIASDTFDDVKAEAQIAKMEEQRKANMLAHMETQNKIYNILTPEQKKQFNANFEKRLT

[6] = biological target: T6, Spy_(29-124) R89D (UniProt P77754 52-147, R89D)
T6 construct: source: E. coli BL21 (DE3), purified (Ni-NTA, cation exchange, SEC); not shown: His6, N-terminal, cleaved; SUMO, N-terminal, cleaved
T6 sequence (looked up): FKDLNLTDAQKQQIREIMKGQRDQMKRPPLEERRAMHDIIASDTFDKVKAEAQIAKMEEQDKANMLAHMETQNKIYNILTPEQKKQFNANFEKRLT

[7] = biological target: T7, Spy_(29-124) H96D (UniProt P77754 52-147, H96D)
T7 construct: source: E. coli BL21 (DE3), purified (Ni-NTA, cation exchange, SEC); not shown: His6, N-terminal, cleaved; SUMO, N-terminal, cleaved
T7 sequence (looked up): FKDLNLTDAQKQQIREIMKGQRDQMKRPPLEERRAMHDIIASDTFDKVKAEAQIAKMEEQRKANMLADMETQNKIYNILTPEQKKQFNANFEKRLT

[8] = biological target: T8, Spy_(29-124) K121D R122D (UniProt P77754 52-147, K121D | R122D)
T8 construct: source: E. coli BL21 (DE3), purified (Ni-NTA, cation exchange, SEC); not shown: His6, N-terminal, cleaved; SUMO, N-terminal, cleaved
T8 sequence (looked up): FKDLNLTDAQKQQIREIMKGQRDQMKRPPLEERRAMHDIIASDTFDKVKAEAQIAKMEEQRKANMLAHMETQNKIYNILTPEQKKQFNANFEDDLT

[9] = biological target: T9, Spy_(1-124) (UniProt P77754 24-147)
T9 construct: source: E. coli BL21 (DE3), purified (Ni-NTA, cation exchange, SEC); not shown: His6, N-terminal, cleaved; SUMO, N-terminal, cleaved
T9 sequence (looked up): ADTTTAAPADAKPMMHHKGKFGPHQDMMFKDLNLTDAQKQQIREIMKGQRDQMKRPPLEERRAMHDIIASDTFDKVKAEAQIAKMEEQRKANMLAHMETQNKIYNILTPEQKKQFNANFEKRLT
Procedure, shortened: (§1)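 Association was recorded with an Octet RED96 as streptavidin sensors carrying client proteins, biotinylated with EZ-link NHS-biotin at a 1:1 molar ratio, sat in 40 mM HEPES, 150 mM NaCl, pH 7.5 with 0.25 to 2 μM of the analyte protein (0.25, 0.5, 1, 1.5 and 2 μM). Dissociation followed after transfer to analyte-free buffer. Both wavelength-shift phases were fitted in SigmaPlot 12.0 to obtain koff and the observed association rate, whose dependence on analyte concentration yielded kon, with Kd defined as koff divided by kon.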

[10] = biological target: T10, Spy_(21-124) (UniProt P77754 44-147)
T10 construct: source: E. coli BL21 (DE3), purified (Ni-NTA, cation exchange, SEC); not shown: His6, N-terminal, cleaved; SUMO, N-terminal, cleaved
T10 sequence (looked up): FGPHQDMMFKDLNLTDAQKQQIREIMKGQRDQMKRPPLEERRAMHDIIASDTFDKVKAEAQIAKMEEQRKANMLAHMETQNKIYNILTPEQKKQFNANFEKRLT
Procedure, shortened: as §1

kon [1]: 196000 M⁻¹ s⁻¹
kon [2]: 178000 M⁻¹ s⁻¹
kon [3]: 126000 M⁻¹ s⁻¹
kon [4]: 74000 M⁻¹ s⁻¹
kon [5]: 156000 M⁻¹ s⁻¹
kon [6]: 48000 M⁻¹ s⁻¹
kon [7]: 185000 M⁻¹ s⁻¹
kon [8]: 188000 M⁻¹ s⁻¹
Kd [9]: 930 nM
Kd [10]: 1820 nM
B1: Im7 H40W L53A I54A (natural protein)
chain: MELKNSISDYTEAEFVQLLKEIEKENVAATDDVLDVLLEWFVKITEHPDGTDAAYYPSDNRDDSPEGIVKEIKEWRAANGKPGFKQG
modifications: biotin (EZ-link NHS-biotin, 1:1 molar ratio of biotin to protein)
notes: Im7 (colicin E7 immunity protein) with H40W L53A I54A; Spy was made with an N-terminal His6-SUMO tag that was cleaved; also called Im7AAW; partially folded client; source: purified by a similar procedure to Spy
